Source: US20190374567A1, “Reverse Transcriptase Dependent Conversion of RNA Templates Into DNA” (priority 2016, published 2019)

Key:
Superscript III = assay: RT-PCR of 2.2 kb eGFP transcript with Superscript III; format: biochemical; details: 1.5 μg RNA
Excerpt: (§1) Samples were DNase treated using the Qiagen RNase-Free DNase Set (Qiagen Catalog #79254) followed by purification using the Qiagen RNeasy Mini Kit (Qiagen Catalog #74104) and manufacturer's instructions. To eliminate potential gDNA contamination, each RNA sample was DNase treated four times.
(§2) cDNA was generated using Invitrogen's SuperScript III First-Strand Synthesis System for RT-PCR (Invitrogen Catalog #18080-051) or a recombinant HIV Reverse Transcriptase (HIV RT, Worthington Biochemical Corporation Catalog #LS05003). All reactions received 2 μl 10 RT reaction buffer, 4 μl 25 mM MgCl2, 2 μl 0.1 M DTT, 1 μl 10 mM dNTPs, and 2 μM primer (8 μM when Phosphorothioate Primer used). For reactions using Superscript III, 200 U enzyme was used. Reactions using HIV RT contained 10 U enzyme. Different concentrations of RNA template were used, ranging from 1.5 to 5 μg/reaction. Table 21. No-RT and no-template controls were set up during reverse transcription. Reactions using Superscript III enzyme were incubated at 65° C. for 5 minutes, 50° C. for 60 minutes, and 85° C. for 5 minutes. Reactions using HIV RT were incubated at 65° C. for 5 minutes, 37° C. for 60 minutes, and 85° C. for 5 minutes. HIV RT was tested in the presence and absence of beta-thujaplicinol.
(§3) PCR Analysis: PCR was performed using primers PCR-F2 and PCR-R2. PCR products were resolved using a 1% agarose gel and purified using the QIAquick Gel Extraction Kit (Qiagen Catalog #28704). […]

[1] = molecular target: T1, HIV Reverse Transcriptase (Human immunodeficiency virus type 1 group M subtype B, UniProt P04585); assay: RT-PCR of 2.2 kb eGFP transcript with HIV RT, with or without beta-thujaplicinol; format: biochemical
T1 construct: a recombinant HIV Reverse Transcriptase; purchased Worthington Biochemical Corporation LS05003
Excerpt: as §1, §2, §3

[2] = Sequence analysis of RT-PCR product against reference sequence; details: SV40 DNA primer and HIV RT used in cDNA generation
Protocol: Sequence Analysis: Sequencing was performed using BigDye Terminator Cycle Sequencing. Data analysis was performed by GENEWIZ with DNASTAR Lasergene software. FIG. 34 (SEQ ID NO.: 23) depicts the WT eGFP Consensus sequence (2,225 bp); SV40 DNA primer and HIV RT used in cDNA generation. FIG. 35 (SEQ ID NO.: 24) depicts the Alpha-Thio-Uridine eGFP Consensus (2,225 bp); SV40 RNA primer and Superscript used in cDNA generation.

[3] = mRNA quality check before and after DNase treatment (agarose gel, OD 260/280); format: physicochemical
Protocol: The experimental procedure and assay readout for the analysis and removal of the mRNA contamination by plasmidic DNA was as follows: 1) the 4 mRNAs solutions were thawed, aliquoted and stored at −80° C., 2) aliquots of the mRNAs solutions were treated with the DNase as recommended by the manufacturer (Qiagen, cat #79254): four rounds of DNase were successively performed, 3) following the DNase digestion, the mRNAs were purified on columns as recommended by the manufacturer (Qiagen, RNeasy Elute), 4) the eluates were quantified and controlled on an Agarose gel, 5) a PCR amplification reaction was performed to evaluate the DNA contamination of the mRNA solutions before and after the DNase treatment.
Timeline of mRNAs solutions control and DNA digestion. mRNA solutions are thawed and digested with DNase. The solutions are purified on a column. The mRNA is quantified and quality control on an agarose gel is performed after purification. A PCR reaction of the mRNA aliquots is performed on aliquots from before and after purification.

B1: EGFP-WT: 2.2 kb wild type eGFP transcript (RNA template synthesized with plasmid pAFTAB) (nucleic acid)
DNA: TTGGCCACTCCCTCTCTGCGCGCTCGCTCGCTCACTGAGGCCGCCCGGGCAAAGCCCGGGCGTCGGGCGACCTTTGGTCGCCCGGCCTCAGTGAGCGAGCGAGCGCGCAGAGAGGGAGTGGCCAA
modifications: chemistry not fully specified; the letters are possibly those of the target site
2.07: OD 260/280 Pre-treatment ([3]; mRNA solution before DNase treatment and column purification)
present: 2.2 kb fragment of interest in PCR from RT reaction (Superscript III; PBS RNA primer) | 2.2 kb fragment of interest in PCR from RT reaction (Superscript III; PCR-R2 primer) | 2.2 kb fragment of interest in PCR from RT reaction (Superscript III; SV40 DNA primer) | 2.2 kb fragment of interest in PCR from RT reaction ([1]; SV40 DNA primer, 1.5 μg RNA, β-Thujaplicinol 0 μM) | 2.2 kb fragment of interest in PCR from RT reaction ([1]; SV40 DNA primer, 2 μg RNA, β-Thujaplicinol 0 μM) | 2.2 kb fragment of interest in PCR from RT reaction ([1]; SV40 DNA primer, 2 μg RNA, β-Thujaplicinol 1 μM) | 2.2 kb fragment of interest in PCR from RT reaction ([1]; SV40 DNA primer, 5 μg RNA, β-Thujaplicinol 0.2 μM) | 2.2 kb fragment of interest in PCR from RT reaction ([1]; SV40 RNA primer, 1.5 μg RNA, β-Thujaplicinol 0 μM) | 2.2 kb fragment of interest in PCR from RT reaction ([1]; SV40 RNA primer, 1.5 μg RNA, β-Thujaplicinol 0.2 μM) | 2.2 kb fragment of interest in PCR from RT reaction ([1]; SV40 RNA primer, 2 μg RNA, β-Thujaplicinol 1 μM)
2.05: OD 260/280 Post-treatment ([3]; mRNA solution after DNase treatment and column purification)
100%: consensus sequence match to the reference sequence [2]
